Literature values, collected in paper PMC3767571.

Biological target: Sortilin (Homo sapiens) (UniProt Q99523)
Sequence of UniProt Q99523 (Q99523 78-755): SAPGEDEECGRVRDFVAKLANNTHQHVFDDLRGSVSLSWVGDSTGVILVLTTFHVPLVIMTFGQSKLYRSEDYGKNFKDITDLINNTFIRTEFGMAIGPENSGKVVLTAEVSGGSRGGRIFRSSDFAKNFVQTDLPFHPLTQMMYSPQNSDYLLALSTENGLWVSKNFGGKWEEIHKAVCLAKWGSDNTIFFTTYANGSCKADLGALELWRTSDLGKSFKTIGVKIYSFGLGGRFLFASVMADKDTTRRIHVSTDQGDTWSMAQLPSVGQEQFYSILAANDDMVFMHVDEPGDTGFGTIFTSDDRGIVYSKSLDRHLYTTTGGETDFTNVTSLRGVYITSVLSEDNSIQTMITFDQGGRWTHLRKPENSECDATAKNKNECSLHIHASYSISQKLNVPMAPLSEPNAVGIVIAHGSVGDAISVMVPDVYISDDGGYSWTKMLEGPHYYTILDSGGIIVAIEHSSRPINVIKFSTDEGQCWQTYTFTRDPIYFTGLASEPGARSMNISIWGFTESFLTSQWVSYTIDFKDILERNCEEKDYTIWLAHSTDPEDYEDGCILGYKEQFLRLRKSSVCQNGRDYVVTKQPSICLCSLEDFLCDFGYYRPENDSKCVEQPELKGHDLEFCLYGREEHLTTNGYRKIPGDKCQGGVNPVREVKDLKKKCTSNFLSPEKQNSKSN

Kd: 11 nM
Substance: Progranulin (from UniProt P28799)
